Molecular target: ΔC SSB (Escherichia coli, UniProt P0AGE0)
Assay: EMSA; additional complexes at higher SSB:DNA ratios; EMSA: 20 mM Tris-HCl pH 8.0, 50 mM NaCl, 5% glycerol, 50 µg/ml BSA, 4 °C, 30 min, 1 pmol DNA with 0.2, 2 or 10 pmol SSB in 15 µl; fluorescence: Buffer A (composition not given in the material) with ~50 or ~200 mM NaCl
Conditions: protein: recombinant; chain copies: 4; label: 5'-32P

ΔC SSB, sequence (P0AGE0 1-113, tags or fused parts left off): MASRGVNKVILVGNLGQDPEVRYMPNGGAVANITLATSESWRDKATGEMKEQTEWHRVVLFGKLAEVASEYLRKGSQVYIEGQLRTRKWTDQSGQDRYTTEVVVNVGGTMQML

B1: 79mer ssDNA (ssDNA)
DNA: GCACTAGTGCGGATAGCCCCGTGTTGTTGTCTGACCCCCGACCCCGACGGCAATGCGGGGCAATCCCCTGGAGGCCTGC
binding result: binds
